Target: Timeless (optimised construct);Tipin (human;human, UniProt Q9UNS1;Q9BVW5 1-238+=GSTGST+331-1208;1-301, internal_change|)
Assay: EMSA

B1: dsG4 (dsGQ) (structured_DNA)
DNA 1: ACGAGAGCTAGCACATTTTGAGGGTGGGTAGGGTGGGTAATTTTCACGTAGAACCTGT
DNA 2: ACAGGTTCTACGTGATTTTTTTTTTTTTTTTTTTTTTTTTTTTTGTGCTAGCTCTCGT
- binding result: binds

B2: dsHP (structured_DNA)
DNA 1: ACGAGAGCTAGCACATTTTGAGGCTGCGTTTCGCAGCCTCAATTTCACGTAGAACCTGT
DNA 2: B1 DNA 2
- binding result: no binding

Reference: doi:10.1101/826578
